Laboratory results reported in patent US12692302B2, “Uses of IL-13 antagonists for treating atopic dermatitis” (Genentech, Inc., priority 2016, dated 2026).

Tests used:
[1] = Clinical Study I: serum lebrikizumab pharmacokinetics; assay type: in vivo, human; settings: AD patients; for Mean Cmax, wk1 / Mean Cmin wk12 / Mean Cmin, wk4 / Mean Cmin, wk8: serum
Description: Pharmacokinetic parameters were also assessed as follows. Serum samples for analysis of lebrikizumab pharmacokinetics were obtained at Day 1 (pre-dose) and at Weeks 1, 4 (pre-dose), 6, 8 (pre-dose), 12, 16, and 20 for all dosing regimens. Serum lebrikizumab concentrations were summarized by treatment and visit using descriptive statistics for the patients that received one of the lebrikizumab treatment regimens.

[2] = test system: atopic dermatitis patients; test: Atopic dermatitis longitudinal PK-PD model of lebrikizumab (EASI score) and simulated dosing regimens; design: species or system human; settings: PK-PD model fitted to EASI scores up to 12 weeks from Clinical Study I
Excerpt: In FIG. 5, R(t) is the EASI score; Kin0 is the baseline disease progression rate constant; kin is the disease progression rate constant with lebrikizumab and including the placebo/TCS effect; Edrug is the lebrikizumab drug effect on disease progression inhibition; Econ is the placebo/TCS effect (constant overtime); Emax is the maximum lebrikizumab drug effect on disease progression inhibition; EC50 is the lebrikizumab concentration that leads to 50% of Emax; kout is the tissue repair rate constant; R(t=0) is the baseline EASI score; IIV is the inter-individual variability; ωkout is the inter-individual variability for kout; ωEcon is the inter-individual variability for Econ; ρKoutXEcon is the correlation between kout and Econ; and σ is the residual error.
The model was used to simulate the predicted efficacy, e.g., EASI-75 score, of various alternative dosing regimens, for example, including but not limited to, various loading doses followed subsequently by various maintenance doses, e.g., flat doses of lebrikizumab administered at regular time intervals, or various lower flat doses or higher flat doses, or increased treatment intervals with lebrikizumab.
The model development began with raw pharmacokinetic and efficacy data that had been collected during the conduct of the Phase II Clinical Study I described above. […]

## lebrikizumab: monoclonal humanized anti-IL-13 IgG4 antibody; heavy chain SEQ ID NO: 11, light chain SEQ ID NO: 12; formulated at 125 mg/mL in prefilled syringe
[1]; 125 mg Q4W subcutaneous
  t½ (elimination half-life): 20.9 days
  Mean Cmax, wk1: 16.1 µg/mL
  Mean Cmin wk12: 14.4 µg/mL
  Mean Cmin, wk4: 9.15 µg/mL
  Mean Cmin, wk8: 13.6 µg/mL
[1]; 125 mg SD subcutaneous
  t½ (elimination half-life): 18.5 days
  Mean Cmax, wk1: 17.0 µg/mL
  Mean Cmin wk12: 2.28 µg/mL
  Mean Cmin, wk4: 10.2 µg/mL
  Mean Cmin, wk8: 4.59 µg/mL
[1]; 250 mg SD subcutaneous
  t½ (elimination half-life): 22.2 days
  Mean Cmax, wk1: 35.6 µg/mL
  Mean Cmin wk12: 3.77 µg/mL
  Mean Cmin, wk4: 21.4 µg/mL
  Mean Cmin, wk8: 9.53 µg/mL
[1]; across the dosing regimens
  half-life: 19 to 22 days
[2]
  EC50 (lebrikizumab concentration that leads to 50% of Emax), estimate: 8.08 mg/L
  Emax (maximum lebrikizumab drug effect on disease progression inhibition), estimate: 0.729
